# T1: GLMVGGVVIA
# T1 construct: Aβ 33-42
# T1 peptide: GLMVGGVVIA
# T2: AEDVGSNKGA
# T2 construct: Aβ 21-30
# T2 peptide: AEDVGSNKGA
# T3: GAIIGLMVGG
# T3 construct: Aβ 29-38
# T3 peptide: GAIIGLMVGG
# T4: ISEVKMDAEF
# T4 construct: APP flank + Aβ 1-4
# T4 peptide: ISEVKMDAEF
# T5: FRHDSGYEVH
# T5 construct: Aβ 4-13
# T5 peptide: FRHDSGYEVH
# T6: EISEVKMDAE
# T6 construct: APP flank + Aβ 1-3
# T6 peptide: EISEVKMDAE
# T7: DSGYEVHHQK
# T7 construct: Aβ 7-16
# T7 peptide: DSGYEVHHQK
# T8: EDVGSNKGAI
# T8 construct: Aβ 22-31
# T8 peptide: EDVGSNKGAI
# T9: GSNKGAIIGL
# T9 construct: Aβ 25-34
# T9 peptide: GSNKGAIIGL
# T10: VFFAEDVGSN
# T10 construct: Aβ 18-27
# T10 peptide: VFFAEDVGSN
# T11: QKLVFFAEDV
# T11 construct: Aβ 15-24
# T11 peptide: QKLVFFAEDV
# T12: EVKMDAEFRH
# T12 construct: APP flank + Aβ 1-6
# T12 peptide: EVKMDAEFRH
# T13: EFRHDSGYEV
# T13 construct: Aβ 3-12
# T13 peptide: EFRHDSGYEV
# T14: MVGGVVIATV
# T14 construct: Aβ 35-43 + one further APP residue
# T14 peptide: MVGGVVIATV
# T15: HHQKLVFFAE
# T15 construct: Aβ 13-22
# T15 peptide: HHQKLVFFAE
# T16: IGLMVGGVVI
# T16 construct: Aβ 32-41
# T16 peptide: IGLMVGGVVI
# T17: FFAEDVGSNK
# T17 construct: Aβ 19-28
# T17 peptide: FFAEDVGSNK
# T18: AEFRHDSGYE
# T18 construct: Aβ 2-11
# T18 peptide: AEFRHDSGYE
# T19: HDSGYEVHHQ
# T19 construct: Aβ 6-15
# T19 peptide: HDSGYEVHHQ
# T20: EVHHQKLVFF
# T20 construct: Aβ 11-20
# T20 peptide: EVHHQKLVFF
# T21: HQKLVFFAED
# T21 construct: Aβ 14-23
# T21 peptide: HQKLVFFAED
# T22: KMDAEFRHDS
# T22 construct: APP flank + Aβ 1-8
# T22 peptide: KMDAEFRHDS
# T23: FAEDVGSNKG
# T23 construct: Aβ 20-29
# T23 peptide: FAEDVGSNKG
# T24: YEVHHQKLVF
# T24 construct: Aβ 10-19
# T24 peptide: YEVHHQKLVF
# T25: VGSNKGAIIG
# T25 construct: Aβ 24-33; this label stands at two neighbouring bars
# T25 peptide: VGSNKGAIIG
# T26: IIGLMVGGVV
# T26 construct: Aβ 31-40
# T26 peptide: IIGLMVGGVV
# T27: NKGAIIGLMV
# T27 construct: Aβ 27-36
# T27 peptide: NKGAIIGLMV
# T28: DAEFRHDSGY
# T28 construct: Aβ 1-10
# T28 peptide: DAEFRHDSGY
# T29: DVGSNKGAII
# T29 construct: Aβ 23-32
# T29 peptide: DVGSNKGAII
# T30: SNKGAIIGLM
# T30 construct: Aβ 26-35
# T30 peptide: SNKGAIIGLM
# T31: RHDSGYEVHH
# T31 construct: Aβ 5-14
# T31 peptide: RHDSGYEVHH
# T32: KLVFFAEDVG
# T32 construct: Aβ 16-25
# T32 peptide: KLVFFAEDVG
# T33: EEISEVKMDA
# T33 construct: APP flank + Aβ 1-2
# T33 peptide: EEISEVKMDA
# T34: MDAEFRHDSG
# T34 construct: APP flank + Aβ 1-9
# T34 peptide: MDAEFRHDSG
# T35: AIIGLMVGGV
# T35 construct: Aβ 30-39
# T35 peptide: AIIGLMVGGV
# T36: GYEVHHQKLV
# T36 construct: Aβ 9-18
# T36 peptide: GYEVHHQKLV
# T37: LMVGGVVIAT
# T37 construct: Aβ 34-43
# T37 peptide: LMVGGVVIAT
# T38: VKMDAEFRHD
# T38 construct: APP flank + Aβ 1-7
# T38 peptide: VKMDAEFRHD
# T39: SGYEVHHQKL
# T39 construct: Aβ 8-17
# T39 peptide: SGYEVHHQKL
# T40: SEVKMDAEFR
# T40 construct: APP flank + Aβ 1-5
# T40 peptide: SEVKMDAEFR
# T41: LVFFAEDVGS
# T41 construct: Aβ 17-26
# T41 peptide: LVFFAEDVGS
# T42: KGAIIGLMVG
# T42 construct: Aβ 28-37
# T42 peptide: KGAIIGLMVG
# Tests used:
# Experiment in all cases: epitope map assay, OD on overlapping 10-mer peptides
# [1] = target: T1, GLMVGGVVIA
# [2] = target: T2, AEDVGSNKGA
# [3] = target: T3, GAIIGLMVGG
# [4] = target: T4, ISEVKMDAEF
# [5] = target: T5, FRHDSGYEVH
# [6] = target: T6, EISEVKMDAE
# [7] = target: T7, DSGYEVHHQK
# [8] = target: T8, EDVGSNKGAI
# [9] = target: T9, GSNKGAIIGL
# [10] = target: T10, VFFAEDVGSN
# [11] = target: T11, QKLVFFAEDV
# [12] = target: T12, EVKMDAEFRH
# [13] = target: T13, EFRHDSGYEV
# [14] = target: T14, MVGGVVIATV
# [15] = target: T15, HHQKLVFFAE
# [16] = target: T16, IGLMVGGVVI
# [17] = target: T17, FFAEDVGSNK
# [18] = target: T18, AEFRHDSGYE
# [19] = target: T19, HDSGYEVHHQ
# [20] = target: T20, EVHHQKLVFF
# [21] = target: T21, HQKLVFFAED
# [22] = target: T22, KMDAEFRHDS
# [23] = target: T23, FAEDVGSNKG
# [24] = target: T24, YEVHHQKLVF
# [25] = target: T25, VGSNKGAIIG
# [26] = target: T26, IIGLMVGGVV
# [27] = target: T27, NKGAIIGLMV
# [28] = target: T28, DAEFRHDSGY
# [29] = target: T29, DVGSNKGAII
# [30] = target: T30, SNKGAIIGLM
# [31] = target: T31, RHDSGYEVHH
# [32] = target: T32, KLVFFAEDVG
# [33] = target: T33, EEISEVKMDA
# [34] = target: T34, MDAEFRHDSG
# [35] = target: T35, AIIGLMVGGV
# [36] = target: T36, GYEVHHQKLV
# [37] = target: T37, LMVGGVVIAT
# [38] = target: T38, VKMDAEFRHD
# [39] = target: T39, SGYEVHHQKL
# [40] = target: T40, SEVKMDAEFR
# [41] = target: T41, LVFFAEDVGS
# [42] = target: T42, KGAIIGLMVG
binder,measurement,setting,value
"mouse 15C11 antibody (antibody, V domains shown, Mouse monoclonal antibody from a hybridoma; The claims number the mature chains 1-111 and 1-112; also called mouse antibody 15C11) VH: EVKLVESGGGLVQPGGSLKLSCAASGFTFSRYSMSWVRQTPEKRLELVAKISNSGDNTYYPDTLKGRFTISRDNAQNTLYLQMSSLKSEDTAMYYCASGDYWGQGTTLTVSS VL: DVVMTQTPLSLPVSLGDQASISCRSSQSLVHSDGNTYLHWYLQKPGQSPKLLIYKVSNRFSGVPDRFSGSGSGTDFTLKISRVEAEDLGVYFCSQSTHVWTFGGGTKLEIK",binding result,[1],no binding
same,binding result,[2],no binding
same,binding result,[3],no binding
same,binding result,[4],no binding
same,binding result,[5],no binding
same,binding result,[6],no binding
same,binding result,[7],no binding
same,binding result,[8],no binding
same,binding result,[9],no binding
same,binding result,[10],binds
same,binding result,[11],binds
same,binding result,[12],no binding
same,binding result,[13],no binding
same,binding result,[14],no binding
same,binding result,[15],binds
same,binding result,[16],no binding
same,binding result,[17],binds
same,binding result,[18],no binding
same,binding result,[19],no binding
same,binding result,[20],no binding
same,binding result,[21],binds
same,binding result,[22],no binding
same,binding result,[23],no binding
same,binding result,[24],no binding
same,binding result,[25],no binding
same,binding result,[26],no binding
same,binding result,[27],no binding
same,binding result,[28],no binding
same,binding result,[29],no binding
same,binding result,[30],no binding
same,binding result,[31],no binding
same,binding result,[32],binds
same,binding result,[33],no binding
same,binding result,[34],no binding
same,binding result,[35],no binding
same,binding result,[36],no binding
same,binding result,[37],no binding
same,binding result,[38],no binding
same,binding result,[39],no binding
same,binding result,[40],no binding
same,binding result,[41],binds
same,binding result,[42],no binding
